Test [1] concerns HEK293T CARM1 KO cells. Nature of the test: Rescue of endogenous BAF155 and MED12 methylation, transient transfection, western blot. It is filed as cell-based. As to conditions: transient expression in HEK293T CARM1 KO cells. Here is the method: Next, we transiently transfected FL and the two aforementioned CARM1 truncations in HEK293T CARM1 KO cells and measured substrate methylation by western blotting with ADMA antibodies.
Cells were collected by trypsinization, washed with Dulbecco's phosphate buffer saline (Life Technologies, Carlsbad, CA) and lysed by suspension in lysis buffer (50 mM Tris-HCl pH 8.0, 150 mM NaCl, 10% glycerol, 0.5% Triton X-100 and 1 × protease inhibitor cocktail (Sigma-Aldrich)). After brief sonication followed by centrifugation, total protein was quantified using the BioRad Protein Assay (BioRad, Hercules, CA), and 20 μg protein was resolved by SDS–PAGE. Proteins were transferred to a nitrocellulose membrane for 1.5 h at 350 mA. Membranes were blocked with 5% nonfat milk at room temperature for 1 h and incubated overnight with diluted primary antibody at 4 °C. Membranes were then washed and incubated with HRP-conjugated secondary antibody for 1 h at room temperature. Signal was visualized by enhanced chemiluminescence reagents (Thermo Scientific, Rockford, IL) and X-ray film exposure followed by scanning and digitalization. Me-PABP1 and PABP1 antibodies, me-BAF155 antibody[20] and me-MED12 antibody[30] were generated previously in the Xu lab. FLAG antibody (catalogue #F7425) was purchased from Sigma and used at a dilution of 1:5,000; BAF155 antibody (sc-10756) was purchased from Santa Cruz and used at a dilution of 1:1,000; MED12 antibody (ab70842) was purchased from Abcam (Cambridge, MA) and used at 1:1,000 dilution.

The subject of test [2] is MCF7 CARM1 KO cells. Nature of the test: Total cellular ADMA levels, stable expression, western blot. As to conditions: stable expression in MCF7 CARM1 KO cells; compared with CARM1 FL and CARM1 28–608. The test is classed as cell-based, human. The text has this: We next sought to assess the impact of CARM1 N-terminal deletion in cells stably expressing mutant enzymes. […] To quantify the affected ADMA-containing peptides in MCF7 CARM1 KO and CARM1 140–608 expressing cells, we employed our quantitative MS method (Fig. 1a) using CARM1 28–608 as a reference for normalization (Supplementary Data 4). […] The magnitude of reduction in CARM1 140–608 cells, however, was slightly less than that in the CARM1 KO cells. […] As indicated by R^2 of 0.65, noticeable differences existed between the levels of ADMA-containing peptides in cells expressing the N-terminal truncation of CARM1 and CARM1 28–608 control (Supplementary Fig. 4f).
Cells were collected by trypsinization, washed with Dulbecco's phosphate buffer saline (Life Technologies, Carlsbad, CA) and lysed by suspension in lysis buffer (50 mM Tris-HCl pH 8.0, 150 mM NaCl, 10% glycerol, 0.5% Triton X-100 and 1 × protease inhibitor cocktail (Sigma-Aldrich)). After brief sonication followed by centrifugation, total protein was quantified using the BioRad Protein Assay (BioRad, Hercules, CA), and 20 μg protein was resolved by SDS–PAGE. Proteins were transferred to a nitrocellulose membrane for 1.5 h at 350 mA. Membranes were blocked with 5% nonfat milk at room temperature for 1 h and incubated overnight with diluted primary antibody at 4 °C. […]
In general terms: A western blot detects proteins with antibodies after separation by electrophoresis.

Experimental findings from publication PMC5458078, “Global mapping of CARM1 substrates defines enzyme specificity and substrate recognition” (Nature Communications, 2017) are described below.

B1: CARM1 140–608: CARM1 140–608 lacks the first 140 residues encompassing the EVH1 domain (protein)
chain: RTEESSAVQYFQFYGYLSQQQNMMQDYVRTGTYQRAILQNHTDFKDKIVLDVGCGSGILSFFAAQAGARKIYAVEASTMAQHAEVLVKSNNLTDRIVVIPGKVEEVSLPEQVDIIISEPMGYMLFNERMLESYLHAKKYLKPSGNMFPTIGDVHLAPFTDEQLYMEQFTKANFWYQPSFHGVDLSALRGAAVDEYFRQPVVDTFDIRILMAKSVKYTVNFLEAKEGDLHRIEIPFKFHMLHSGLVHGLAFWFDVAFIGSIMTVWLSTAPTEPLTHWYQVRCLFQSPLFAKAGDTLSGTCLLIANKRQSYDISIVAQVDQTGSKSSNLLDLKNPFFRYTGTTPSPPPGSHYTSPSENMWNTGSTYNLSSGMAVAGMPTAYDLSSVIASGSSVGHNNLIPLANTGIVNHTHSRMGSIMSTGIVQGSSGAQGSGGGSTSAHYAVNSQFTMGGPAISMASPMSIPTNTMHYGS
modifications: left off: FLAG, end not stated, kept
notes: CARM1 140–608 lacks the first 140 residues encompassing the EVH1 domain
Consider B1, for which, in test [1], the “Methylation of endogenous BAF155 and MED12” value is reported as “failed to restore endogenous protein methylation”. Further, the “Cellular protein (ADMA) methylation levels” value in test [2] was “drastically decreased levels of cellular protein methylation”.
